The test addresses T1, human Factor XIIa-beta (human, UniProt P00748 354-615, limits assumed).
T1 construct: Bought from Enzyme Research Laboratories; also called FXIIa beta; FXIIa-beta
T1 sequence: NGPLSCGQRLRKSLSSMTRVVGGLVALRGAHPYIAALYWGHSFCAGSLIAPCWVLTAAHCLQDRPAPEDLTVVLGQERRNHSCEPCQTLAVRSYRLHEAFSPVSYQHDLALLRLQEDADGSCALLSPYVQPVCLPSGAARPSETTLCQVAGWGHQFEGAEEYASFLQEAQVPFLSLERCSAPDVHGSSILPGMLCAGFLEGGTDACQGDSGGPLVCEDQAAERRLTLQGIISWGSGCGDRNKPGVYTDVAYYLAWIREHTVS
Description: SPR (Biacore A100), unpurified IgG4 supernatant captured on anti-human IgG, single FXIIa beta concentration (100 nM), 37 C, 1:1 fit; estimated. Here is the method:
Anti-human (Goat anti-human IgG (gamma) mouse adsorbed, Invitrogen, Cat No. H10500) was chemically immobilised on a CM-5 sensor surface using amine coupling chemistry. Culture supernatants were diluted 1/60 with running buffer before capture. Antibodies were captured for 180 seconds representing an average capture of 800 response units (RU). FXIIa beta was then injected at zero and 100 nM for 180 seconds, and dissociated for 180 seconds. All assays were conducted on a Biacore A100 instrument at 37 degrees Celsius and the data fitted to a 1:1 kinetic model.

B1: VR63 (antibody, V domains shown)
VH: EVQLLESGGGLVQPGGSLRLSCAASGFTFSKYIMQWVRQAPGKGLEWVSGIRPSGGTTVYADSVKGRFTISRDNSKNTLYLQMNSLRAEDTAVYYCARALPRSGYLISPHYYYYALDVWGQGTTVTVSS
VL: QSELTQPPSASGTPGQRVTISCSGSSSNIGRNYVYWYQQVPGTAPKLLIYSNNQRPSGVPDRFSGSKSGTSASLVISGLRSEDEADYYCAAWDNQVRLGFGGGTKLTVLG
notes: Libraries were built on germline stop templates, so frameworks may differ
As for B1, the equilibrium dissociation constant (Kd) was 8.3 nM.

B2: VR62 (antibody, V domains shown)
VH: EVQLLESGGGLVQPGGSLRLSCAASGFTFSKYIMQWVRQAPGKGLEWVSGIRPSGGTTVYADSVKGRFTISRDNSKNTLYLQMNSLRAEDTAVYYCARALPRSGYLISPHYYYYALDVWGQGTTVTVSS
VL: QSVLTQPPSASGTPGQRVTISCSGSSSNIGRNYVYWYQQLPGTAPKLLIYSNNQRPSGVPDRFSGSKSGTSASLAISGLRSEDEADYYCAAWDQQVRLDFGGGTKLTVL
notes: as for B1
With B2, the Kd was 5.81 nM.

B3: VR52 (antibody, V domains shown)
VH: EVQLLESGGGLVQPGGSLRLSCAASGFTFSKYIMQWVRQAPGKGLEWVSGIRPSGGTTVYADSVKGRFTISRDNSKNTLYLQMNSLRAEDTAVYYCARALPRSGYLISPHYYYYALDVWGQGTTVTVSS
VL: QSVLTQPPSASGTPGQRVTISCSGSSSNIGRNYVYWYQQLPGTAPKLLIYSNNQRPSGVPDRFSGSKSGTSASLAISGLRSEDEADYYCAAWDERVRLMFGGGTKLTVL
notes: as for B1
In the case of B3, the Kd was 7.1 nM.

B4: VR148 (antibody, V domains shown)
VH: EVQLLESGGGLVQPGGSLRLSCAASGFTFSKYIMQWVRQAPGKGLEWVSGIRPSGGTTVYADSVKGRFTISRDNSKNTLYLQMNSLRAEDTAVYYCARALPRSGYLVKKQYYYYALDVWGQGTTVTVSS
VL: QSELTQPPSASGTPGQRVTISCSGSSSNIGRNYVYWYQQVPGTAPKLLIYSNNQRPSGVPDRFSGSKSGTSASLVISGLRSEDEADYYCAAWDASLRGVFGGGTKLTVLG
notes: as for B1
For the molecule B4, the Kd was 6.93 nM.

B5: VR109 (antibody, V domains shown)
VH: EVQLLESGGGLVQPGGSLRLSCAASGFTFSKYIMQWVRQAPGKGLEWVSGINPATNTTVYADSVKGRFTISRDNSKNTLYLQMNSLRAEDTAVYYCARALPRSGYLISPHYYYYALDVWGQGTTVTVSS
VL: QSELTQPPSASGTPGQRVTISCSGSSSNIGRNYVYWYQQVPGTAPKLLIYSNNQRPSGVPDRFSGSKSGTSASLVISGLRSEDEADYYCAAWDASLRGVFGGGTKLTVLG
notes: as for B1
B5: the Kd is 5.98 nM.

B6: VR108 (antibody, V domains shown)
VH: EVQLLESGGGLVQPGGSLRLSCAASGFTFSKYIMQWVRQAPGKGLEWVSGINPATKTTVYADSVKGRFTISRDNSKNTLYLQMNSLRAEDTAVYYCARALPRSGYLISPHYYYYALDVWGQGTTVTVSS
VL: QSELTQPPSASGTPGQRVTISCSGSSSNIGRNYVYWYQQVPGTAPKLLIYSNNQRPSGVPDRFSGSKSGTSASLVISGLRSEDEADYYCAAWDASLRGVFGGGTKLTVLG
notes: as for B1
For B6, the Kd is 2.81 nM.

B7: VR101 (antibody, V domains shown)
VH: EVQLLESGGGLVQPGGSLRLSCAASGFTFSKYIMQWVRQAPGKGLEWVSGINPATRSTVYADSVKGRFTISRDNSKNTLYLQMNSLRAEDTAVYYCARALPRSGYLISPHYYYYALDVWGQGTTVTVSS
VL: QSELTQPPSASGTPGQRVTISCSGSSSNIGRNYVYWYQQVPGTAPKLLIYSNNQRPSGVPDRFSGSKSGTSASLVISGLRSEDEADYYCAAWDASLRGVFGGGTKLTVLG
notes: as for B1
As to B7, the Kd was 3.33 nM.

B8: VR159 (antibody, V domains shown)
VH: EVQLLESGGGLVQPGGSLRLSCAASGFTFSKYIMQWVRQAPGKGLEWVSGIRPSGGTTVYADSVKGRFTISRDNSKNTLYLQMNSLRAEDTAVYYCARALPRSGYLVKHGYYYYALDVWGQGTTVTVSS
VL: QSELTQPPSASGTPGQRVTISCSGSSSNIGRNYVYWYQQVPGTAPKLLIYSNNQRPSGVPDRFSGSKSGTSASLVISGLRSEDEADYYCAAWDASLRGVFGGGTKLTVLG
notes: as for B1
As to B8, the Kd was 6.93 nM.

B9: VR39 (antibody, V domains shown)
VH: EVQLLESGGGLVQPGGSLRLSCAASGFTFSKYIMQWVRQAPGKGLEWVSGIRPSGGTTVYADSVKGRFTISRDNSKNTLYLQMNSLRAEDTAVYYCARALPRSGYLISPHYYYYALDVWGQGTTVTVSS
VL: QSVLTQPPSASGTPGQRVTISCSGSSSNIGRNYVYWYQQLPGTAPKLLIYSNNQRPSGVPDRFSGSKSGTSASLAISGLRSEDEADYYCASWWNDLRGVFGGGTKLTVL
notes: as for B1
In the case of B9, the Kd is 5.63 nM.

B10: VR149 (antibody, V domains shown)
VH: EVQLLESGGGLVQPGGSLRLSCAASGFTFSKYIMQWVRQAPGKGLEWVSGIRPSGGTTVYADSVKGRFTISRDNSKNTLYLQMNSLRAEDTAVYYCARALPRSGYLMKKNYYYYALDVWGQGTTVTVSS
VL: QSELTQPPSASGTPGQRVTISCSGSSSNIGRNYVYWYQQVPGTAPKLLIYSNNQRPSGVPDRFSGSKSGTSASLVISGLRSEDEADYYCAAWDASLRGVFGGGTKLTVLG
notes: as for B1
Regarding B10, the Kd was 5.12 nM.

B11: VR167 (antibody, V domains shown)
VH: EVQLLESGGGLVQPGGSLRLSCAASGFTFSKYIMQWVRQAPGKGLEWVSGIRPSGGTTVYADSVKGRFTISRDNSKNTLYLQMNSLRAEDTAVYYCARALPRSGYLMKTGYYYYALDVWGQGTTVTVSS
VL: QSELTQPPSASGTPGQRVTISCSGSSSNIGRNYVYWYQQVPGTAPKLLIYSNNQRPSGVPDRFSGSKSGTSASLVISGLRSEDEADYYCAAWDASLRGVFGGGTKLTVLG
notes: as for B1
In the case of B11, the Kd was 5.8 nM.

B12: VR14 (antibody, V domains shown)
VH: EVQLLESGGGLVQPGGSLRLSCAASGFTFSKYIMQWVRQAPGKGLEWVSGIRPSGGTTVYADSVKGRFTISRDNSKNTLYLQMNSLRAEDTAVYYCARALPRSGYLISPHYYYYALDVWGQGTTVTVSS
VL: QSVLTQPPSASGTPGQRVTISCSGSSGMVEQNYVYWYQQLPGTAPKLLIYSNNQRPSGVPDRFSGSKSGTSASLAISGLRSEDEADYYCAAWDASLRGVFGGGTKLTVL
notes: as for B1
On to B12, for which the equilibrium dissociation constant (Kd) was 6.22 nM.

B13: VR58 (antibody, V domains shown)
VH: EVQLLESGGGLVQPGGSLRLSCAASGFTFSKYIMQWVRQAPGKGLEWVSGIRPSGGTTVYADSVKGRFTISRDNSKNTLYLQMNSLRAEDTAVYYCARALPRSGYLISPHYYYYALDVWGQGTTVTVSS
VL: QSVLTQPPSASGTPGQRVTISCSGSSSNIGRNYVYWYQQLPGTAPKLLIYSNNQRPSGVPDRFSGSKSGTSASLAISGLRSEDEADYYCAAWDPQVRLAFGGGTKLTVL
notes: as for B1
In the case of B13, the Kd was 5.33 nM.

B14: VR103 (antibody, V domains shown)
VH: EVQLLESGGGLVQPGGSLRLSCAASGFTFSKYIMQWVRQAPGKGLEWVSGIDVPVRGTVYADSVKGRFTISRDNSKNTLYLQMNSLRAEDTAVYYCARALPRSGYLISPHYYYYALDVWGQGTTVTVSS
VL: QSELTQPPSASGTPGQRVTISCSGSSSNIGRNYVYWYQQVPGTAPKLLIYSNNQRPSGVPDRFSGSKSGTSASLVISGLRSEDEADYYCAAWDASLRGVFGGGTKLTVLG
notes: as for B1
Consider B14, for which the Kd is 2.87 nM.

B15: VR160 (antibody, V domains shown)
VH: EVQLLESGGGLVQPGGSLRLSCAASGFTFSKYIMQWVRQAPGKGLEWVSGIRPSGGTTVYADSVKGRFTISRDNSKNTLYLQMNSLRAEDTAVYYCARALPRSGYLMKPGYYYYALDVWGQGTTVTVSS
VL: QSELTQPPSASGTPGQRVTISCSGSSSNIGRNYVYWYQQVPGTAPKLLIYSNNQRPSGVPDRFSGSKSGTSASLVISGLRSEDEADYYCAAWDASLRGVFGGGTKLTVLG
notes: as for B1
Consider B15, for which the Kd is 7.13 nM.

B16: VR46 (antibody, V domains shown)
VH: EVQLLESGGGLVQPGGSLRLSCAASGFTFSKYIMQWVRQAPGKGLEWVSGIRPSGGTTVYADSVKGRFTISRDNSKNTLYLQMNSLRAEDTAVYYCARALPRSGYLISPHYYYYALDVWGQGTTVTVSS
VL: QSVLTQPPSASGTPGQRVTISCSGSSSNIGRNYVYWYQQLPGTAPKLLIYSNNQRPSGVPDRFSGSKSGTSASLAISGLRSEDEADYYCASWELPLRGVFGGGTKLTVL
notes: as for B1
For the molecule B16, the Kd was 6.67 nM.

B17: VR53 (antibody, V domains shown)
VH: EVQLLESGGGLVQPGGSLRLSCAASGFTFSKYIMQWVRQAPGKGLEWVSGIRPSGGTTVYADSVKGRFTISRDNSKNTLYLQMNSLRAEDTAVYYCARALPRSGYLISPHYYYYALDVWGQGTTVTVSS
VL: QSVLTQPPSASGTPGQRVTISCSGSSSNIGRNYVYWYQQLPGTAPKLLIYSNNQRPSGVPDRFSGSKSGTSASLAISGLRSEDEADYYCAAWDQQVRKTFGGGTKLTVL
notes: as for B1
As for B17, the Kd was 7.05 nM.

B18: VR99 (antibody, V domains shown)
VH: EVQLLESGGGLVQPGGSLRLSCAASGFTFSKYIMQWVRQAPGKGLEWVSGINPATMTTVYADSVKGRFTISRDNSKNTLYLQMNSLRAEDTAVYYCARALPRSGYLISPHYYYYALDVWGQGTTVTVSS
VL: QSELTQPPSASGTPGQRVTISCSGSSSNIGRNYVYWYQQVPGTAPKLLIYSNNQRPSGVPDRFSGSKSGTSASLVISGLRSEDEADYYCAAWDASLRGVFGGGTKLTVLG
notes: as for B1
In the case of B18, the Kd was 9.19 nM.

B19: VR107 (antibody, V domains shown)
VH: EVQLLESGGGLVQPGGSLRLSCAASGFTFSKYIMQWVRQAPGKGLEWVSGINPATRTTVYADSVKGRFTISRDNSKNTLYLQMNSLRAEDTAVYYCARALPRSGYLISPHYYYYALDVWGQGTTVTVSS
VL: QSELTQPPSASGTPGQRVTISCSGSSSNIGRNYVYWYQQVPGTAPKLLIYSNNQRPSGVPDRFSGSKSGTSASLVISGLRSEDEADYYCAAWDASLRGVFGGGTKLTVLG
notes: as for B1
For the molecule B19, the Kd is 2.45 nM.

As a reminder, the Kd is the free concentration of one partner at which half of the binding sites on the other are occupied at equilibrium, for simple one-to-one binding.

The values above are taken from patent publication US20200062863A1 (CSL BEHRING, published 2020).
